Results on one protein are retold here after paper PMC3823977, “Protein Interaction Analysis of Senataxin and the ALS4 L389S Mutant Yields Insights into Senataxin Post-Translational Modification and Uncovers Mutant-Specific Binding with a Brain Cytoplasmic RNA-Encoded Peptide” (PLoS ONE, 2013).

The data set concerns the molecule itself. Put plainly: SEC; size-exclusion chromatography of recombinant senataxin (1–600) after cleavage from GST. Background: SEC sorts molecules by how far they enter the pores of the column.

B1: recombinant amino-terminal senataxin (1–600), GST cleaved (domain or fragment, human, UniProt Q7Z333-1 1-600, looked up)
chain: MSTCCWCTPGGASTIDFLKRYASNTPSGEFQTADEDLCYCLECVAEYHKARDELPFLHEVLWELETLRLINHFEKSMKAEIGDDDELYIVDNNGEMPLFDITGQDFENKLRVPLLEILKYPYLLLHERVNELCVEALCRMEQANCSFQVFDKHPGIYLFLVHPNEMVRRWAILTARNLGKVDRDDYYDLQEVLLCLFKVIELGLLESPDIYTSSVLEKGKLILLPSHMYDTTNYKSYWLGICMLLTILEEQAMDSLLLGSDKQNDFMQSILHTMEREADDDSVDPFWPALHCFMVILDRLGSKVWGQLMDPIVAFQTIINNASYNREIRHIRNSSVRTKLEPESYLDDMVTCSQIVYNYNPEKTKKDSGWRTAICPDYCPNMYEEMETLASVLQSDIGQDMRVHNSTFLWFIPFVQSLMDLKDLGVAYIAQVVNHLYSEVKEVLNQTDAVCDKVTEFFLLILVSVIELHRNKKCLHLLWVSSQQWVEAVVKCAKLPTTAFTRSSEKSSGNCSKGTAMISSLSLHSMPSNSVQLAYVQLIRSLLKEGYQLGQQSLCKRFWDKLNLFLRGNLSLGWQLTSQETHELQSCLKQIIRNIKFKAP
notes: vector pGEX-4T-2; also called purified senataxin peptide; source: E. coli, GST-tagged, purified after in vitro cleavage
Consider B1, for which the stoichiometry N – broadly, a count of units in the complex or per binding partner – was 2.
